Results taken from IntAct's records for PubMed 21236256.

B1: Actin filament-associated protein 1 (Gallus gallus (Chicken)), Q90738 (parent)
chain: MEELIVELRLFLELLDHEYLTSTVREKKAVITNILLRIQSSKGFEIKEHVQKPEVANSLPAPPQMPLPEIPQQWLPPDNGPPPLPTSSLPEGYYEEAVPVSPGKAPEYITSNYDSDAMSSSYESYDEEEEDGKGKKMRHQWPSEEASMDLVKDAKICAFLLRKKRFGQWTKLLCVIKENKLLCYKSSKDQQPQMELLLNDCSITYIPKDSKKKKHELKISHQGADALVLAVQSKEQAEQWLKVIKDVCSNCTGTVDSDGPLSSSPVHKTELEKKLSSERPSSDGEGAVENGITTVCNGKEQVKRKKSSKTEAKGTVTKVTGKKITKIIGLGKKKPSTDEQTSSAEEDVPTCGYLNVLSNNRWRERWCRVKDNKLIFHKDRTDLKTHIVSIPLRGCEVIPGLDSKHPLTFRLLRNGQEVAVLEASSSEDMGRWIGMLLAETGSSTDPGALHYDYIDVEMTASVIQAAKQTFCFMNRRVISTNPYRGSTANGYACPSGMALHYDDVPCINGSFKGKKPPATANGITGKVRTLNSQPKKPESVSCVKRTASNAEQYKYGKNRVEAVAKRLQSKEEELLKRKEALRNRLAQLRKERKDLRAAIEVNAGRKTQVILEDKLKKLEEECKTKEAERVNLELELTEVKESLKKALAGGITLGLAIEPKSGTSSPQSPIFKHRTLENSPISSCDTSDTECSIPVNSAAALKRPPSSNNSPCRGHVLRKAKEWEMKNGT

Variants of: B1
Details: with src_chick SRC

Row | effect of a mutation on the interaction | Variant
1 | decreasing interaction | P71A
